Laboratory results as given in US20230053131A1 (INTERVET, published 2023).

Target: T1, canine IL-4 receptor alpha on DH82 cells (canine)
T1 construct: Endogenous receptor of the canine DH82 cell line in the STAT-6 assay; also called canine IL-4Rα; IL-4R alpha
T1 chain: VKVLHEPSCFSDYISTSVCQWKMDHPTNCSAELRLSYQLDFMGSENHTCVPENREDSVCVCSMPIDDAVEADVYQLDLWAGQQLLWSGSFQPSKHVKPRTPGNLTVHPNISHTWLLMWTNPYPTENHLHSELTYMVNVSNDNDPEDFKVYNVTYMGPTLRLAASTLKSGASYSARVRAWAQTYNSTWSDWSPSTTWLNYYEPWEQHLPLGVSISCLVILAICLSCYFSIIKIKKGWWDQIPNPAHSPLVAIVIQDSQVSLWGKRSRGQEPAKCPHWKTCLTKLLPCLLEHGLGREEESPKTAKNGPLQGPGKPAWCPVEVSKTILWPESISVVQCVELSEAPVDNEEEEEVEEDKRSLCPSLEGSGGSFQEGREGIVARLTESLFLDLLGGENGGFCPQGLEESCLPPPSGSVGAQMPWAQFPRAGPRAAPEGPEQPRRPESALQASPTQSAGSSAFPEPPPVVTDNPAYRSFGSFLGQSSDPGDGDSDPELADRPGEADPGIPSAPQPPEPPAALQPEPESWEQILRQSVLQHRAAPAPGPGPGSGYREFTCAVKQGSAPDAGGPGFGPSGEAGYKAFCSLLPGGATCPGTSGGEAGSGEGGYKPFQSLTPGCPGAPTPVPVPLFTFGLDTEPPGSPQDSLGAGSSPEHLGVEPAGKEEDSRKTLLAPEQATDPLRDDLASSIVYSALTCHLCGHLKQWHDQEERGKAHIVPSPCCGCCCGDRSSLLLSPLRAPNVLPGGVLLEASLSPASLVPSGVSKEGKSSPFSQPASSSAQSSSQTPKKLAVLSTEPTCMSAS
Test: inferred by the filing from inhibition of STAT-6 phosphorylation in DH82 cells
Experimental: Methods [0121] 1. Two tissue culture plates were seeded with 8×10⁴ DH82 cells per well (200 μL with the density of 4×10⁵ cells/mL) and incubated at 37° C. overnight. [0122] 2. The test antibodies were pre-diluted to 500 μg/mL and then 3-fold serially diluted in DH82 Cell Growth Media. The media was removed from the cell culture plates and 50 μL/well of the serially diluted test sample were transferred to each plate. [0123] 3. Canine IL-4 was diluted to 5 ng/mL in DH82 Cell Growth Media and 50 μL was added to each well of one plate. Canine IL-13 was diluted to 10 ng/mL in DH82 Cell Growth Media and 50 μL was added to each well of the second plate. The plates were incubated for 15 min at 37° C. [0124] 4. The media was removed from the plates and 100 μL per well of freshly prepared 1× lysis buffer from the AlphaLISA p-STAT-6 Assay Kit was added to the plate. The plate was agitated on a plate shaker with 350 rpm for 10 minutes at room temperature. [0125] 5. The Acceptor Mix was prepared from the AlphaLISA p-STAT6 Assay Kit and […] was added to 30 μL of the cell lysate in 96-well 1/2 Area Plates. The plates were sealed, agitated for 2 minutes at 350 rpm, and then incubated for 2 hours at room temperature. [0126] 6. […] The plates were read using the AlphaScreen settings on the Perkin Elmer EnVison.

- binding result: binds
B1: c146E2VL3-cCLk-s/c146E2VH3-cIgG-Bm (antibody, V domains shown)
VH: EVQLVQSGAEVKKPGASVKVSCKASGYTFARYWMHWMKQAPGAGLDWIGMIHPDSGNINYNERFKTKATLTVDKSTSTAYMELSSLRAGDIAVYYCARQLRNAMDYWGQGTLVTVSS
VL: DIVLTQTPLSLSVSPGETASIYCRASESVDSYGNSFLNWYQQKPGQPPKLLIYRASNLASEIPDRFSGSGSRTEFTLKISRVEADDAGVYYCQQNYENPRTFGQGTKLEIKR
notes: Caninized murine anti-canine IL-4R alpha antibody, canine IgG-Bm heavy chain and canine kappa light chain; also called c146E2-H3L3
